For eleven sequences, protein production results are on record in a protein production outcome set (Wang et al. 2014).

This series in a line: label from the status in PepcDB records.
As for “MDTKTKRGFWIGINYSKTNLSLITASAILSIAFYLIYYNTKKTVAAVLFLALAIGAAFFFIKPIVDRDNKKNDINSNIPFFITAFSSLVTSDANIIDVLILLSKKEKLGYLRVEIEKILNLVKNWGMGLAEAINFVAKKTPSDLFSDFLTRFSHAIDSGQDLEEFTRSEVFSTMNSFETAYVSALYSFDLYRDIYVSLLLSFAFLITFIMIMPILIPINVFSVLMLSLIMVALGEFMLVYGISIVLPKDPLWHRTGIKTDTDIKMRNLFLISGTFSMMIFIVIDVMKIMFRIPFYFSFALIVTPLAYPSYVGTKMEREVQKKDEMYGSFIRSLSGSASARGNLLIDALKAIVMHDFGILSKDVNKLYRRLLYRINSLKAWKMFSADTGSHLIEIYSETYAESIDLGADALKSGMVISENFEKIVGLRKRKHSSVTSFVGIMYGITAGLAFSLAISYGILKIIDGIFSSFNLSSLGMTGIFLSPPSSSIFLIEIFLLIILFVHSFIGGISLKVSDGGRIINGLHHTVLMIWIVSFVVYGTMYITTILLGSTVS”, the protein production result was “failed”.
Turning to “MLNTFMFPGQGSQAKGMGGALFDRFADLTAQADAVLGYSIRALCVDDPRDELGRTQFTQPALYVVNALTYYAKCEDSGETPDFLAGHSLGEFNALLAAGCFDFETGLKLVARRAELMSQARDGAMAAIVNASREQIERTLDEHGLVDTAIANDNTPSQLVISGPAHEIARAEALFQHDRVRYLRLNTSGAFHSKFMRPAQQAFAAHLQSFRLADPAIPVISNVSARPYENGRVSEGLAQQIASPVRWCESIRYLLALAAERGEAIEFTELGHGDVLTRLVHTIRRQTPAPAAAATSARARPTPPGEPERPAQQTAAAPRASDSASASLGAAERVAAWNRDYPVGTRVRSSLIHDDVLETRTPATVLFGHRAAVYMKGYNGYFDLAEVTPA”, the protein production entry was “not failed”.
For “MSSENDFVEFSSMFERIIQGRGDGLSRFLPVIVALAAREDDDDQGSTDQTTRRGDPLSPRFVMIGSRSGLDDFFSDGGKQGRSPALKSEVENMPRVVIGEDKEKYGGSCAICLDEWSKGDVAAEMPCKHKFHSKCVEEWLGRHATCPMCRYEMPVEEVEEEKKIGIWIGFSINAGDRRN”, the protein production result is “failed”.
Take “MEMEERKLKILQAIINDYINNGEPVGSRTIAKKYNLGISSATIRNEMADLEEMGYIEQLHTSSGRKPSDKGYRLYVDRLMEIPSMSVEEEMLIKAKIIDSALYEIDKLVKQAMSLVSEMTKLTCVVKSLSARKSYIKSISLINIEPNMILCVFITDSGMIKNSIIRVKSNIENSSLERIANILNSKLKGLTIEQINLEVINNIKKDLREYGHIFDCIMPNLYDILREADSTEVYKEGTMNIFNYPEFKDIEKAKEFLSVIDDRRILDTLFNASGGVTVNIGNENSIKEARDFSVVSSVYKYNGRPLGTIGIIGPTRIPYSKVIKVIMEVVDQINNNLDKMNNS”: the protein production result is “failed”.
Under “MVKVTYDIPTCEDYCALRINAGMSPKTREAAEKGLPNALFTVTLYDKDRLIGMGRVIGDGGTVFQIVDIAVSKSYQGQDYGSLIMEHIMKYIKNVSVESAYVSLIADYPADKLYAKFGFMPTEPDSGGMYIKY” stands “not failed”.
As for “MPNDTHAQTGASGPTTLFTNANVLTVDAEFSTAQAIAIRGNRILAVGSDAEVRAAAGDDATVVDLEGKTVLPGFIDAHAHAVSGSVVDAIMDYVGMARFTTVDEVLNHIATRAAKTPAGDWLVFRNFDPAVQEGADALTFAELDPISTDHPIFILNASGHLAYANSRAFEVSGLTNDVPNPPGGEFVRDADGNLTGTIKNNVAFLQIAENYPAMKQVNPVEGLLGLLGKWSQQGLTTVSELSLGALAQSPADVQVMAAAAQSGRMTARLRAYPFYTLGTETWDNAGVKQGDGNALARVAGYKLVADGSNQGFTGLQREPYLNREDRGLAYMEPDELTTTALERAGKGWHLAIHGNGDAAIDNILDTCQALADAGIDMARVRPRIEHCSILHDEQIARMKALGVSASFLIGHVHYWGVAMRDQVFGLEKAQLLDRCKSVEEAGVGFTLHSDFMVTDPNPLHMIEMAVTRRTWKEPDYVLAPQERISVDSAIRAMTSEAAWQLFSDHEIGSLEPGKLADMVILDQDPRKVAPDEIKAIKVLETWMDGQRVFAA”, the protein production result was “failed”.
The value for “MSPSHSINSNSDGNASCSTCSTCFDTTTSTTDEEYDALIKTKTWSLVPKPAGTNIINSIWLYKHKYNADGSLSRYKSRLVANGKSQEHGVDFYETFSPVVKPATIRAVLNFAVERDSSVHQLDVQNAFLHGKLEETVYMYEPPGFVDNKNPGYVCKLNKALYGFKQAPRAWNARFASYVKMMGFKQSKCDASLFVYKQGNDMAYLLLYVDDIMLTASSPSQEKYAKNIINIVEMQNWKPSLTSVDLACKLEESVGPKIQDLTLYRSLVGALQYLTITRPNISYAVQQGLSITKSPSTKLVADSDADWVGCPNTRRSTSGYCVFLRDTLISWSSKRQGSVSRSSAEAEYKAVANAVVATCEVRVIHIPASHQYADIFTKGLTTSLFNRFKSSLGVIQRPTKRLREGDLLFNRKDEIRTFEVVSRYGHGPKLLGRFSGGRIEEFINARTLSAANLRDAEVPTRVAAKLREFHGINIPGDRNVLIWDRMRNWLRQAKSLCTPEDLAEFGLDKIEDEIYLLEHELQDKCKQQEIGFCHNDLQYGNIMIDEDTNAITIIDYEYASYNPVAYDIANHFCEMAANYKVAGEEERRRFIHNYLSSSGEEPKEDDIKQLLKDAEKYTLASHLFWGLWGIISGYVNKIDFDYAEYSRQRFKQYWLRKPELLLFSQMYISNTK” was “failed”; that for “SFRHTLSVDPSEQLSQDFADPVTDSGYESDEEAAAAATASLSGEEAALWNLVDPQQRLIFVLDGPAAQTLRVKRTGNLERQVVNIHRLPLERAPTVATSLLAATRPQHLVVALRTIEPHQAAAILTSTSYPSLSNVENASQVLVLANDLVQIDDPLLRPLWSDEGTQQNRIQLRWVETGCIGGITAALLAAGCWLRIPVLALLAVEDDDGPSPATLEALLLAAERFGCFTRADWEIRMPNLRQLLAKRQLLYI” was “not failed”; that for “MRQFQRLANDGLKSCPPKSGCPMHILFIGYGKTSQRIAKHLFAQGHQITAVSRHPKPQDFVTHLTQDIHQLNLDQCSPIDWVYVLLAPENSDAQSYKHTYLDSVQPIARALATHPVKRVVVVSSTRVYGQQQAGEIVNDQTIAKPVDQQGAYLLEMEEAWQNAFAEHCTIIRPSGIYGNSISRMVKLAKNTTEYPVIHYSNRIHIEDLARFLAFMTQMPCCQPSYLISDGHPYPLHEIILWFQKQLALPQLVLQSDSVTGKRIVPVNFLTTGFELQAEDCFEIYGNLLRSVDT” was “failed”.
The value for “MMADEEEEVKPILQKLQELVDQLYSFRDCYFETHSVEDAGRKQQDVRKEMEKTLQQMEEVVGSVQGKAQVLMLTGKALNVTPDYSPKAEELLSKAVKLEPELVEAWNQLGEVYWKKGDVAAAHTCFSGALTHCRNKVSLQNLSMVLRQLRTDTEDEHSHHVMDSVRQAKLAVQMDVHDGRSWYILGNSYLSLYFSTGQNPKISQQALSAYAQAEKVDRKASSNPDLHLNRATLHKYEESYGEALEGFSRAAALDPAWPEPRQREQQLLEFLDRLTSLLESKGKVKTKKLQSMLGSLRPAHLGPCSDGHYQSASGQKVTLELKPLSTLQPGVNSGAVILGKVVFSLTTEEKVPFTFGLVDSDGPCYAVMVYNIVQSWGVLIGDSVAIPEPNLRLHRIQHKGKDYSFSSVRVETPLLLVVNGKPQGSSSQAVATVASRPQCE” was “failed”; that for “MEGSQQTITSKQLVRMLKDASRGSKGKGSGEMKFCFLIGAGASISSGIPSGAKLAWDWLQQIKEDCDGEDFEDWKIEIKMPDQHIEERVGEFYPEIYEKRFGHAPETGYDYIRGLMEGREPSLGYLILANIMVREKHNVVITTNFDNLLEDAIRTYTKEKPFIAGHEALADYVPKRSDRPIILKLHRDLFLQPFSDQLNTDILQAAWESILGKFLSDYHLIVLGYGGNDGSLMNYLLKLKNRKPIYWCVRNTDKATSKSLWNTLSPKAKRLLKNDGYLVPIDDFDRFMYDCYAALGYKFLEGIEKIEKPKSIHEILKPNYARIESIQTQLRQLSQTEEELSKESFQSIKSFLPDSWMWILKANQEKDIDKKDKIYREGIAKYPQDANLLGDYADFLCDICHDYDRAEAYYKRALEADPNHANTLGNYALFLKDVRHDYDQAEAYYKRALAADPNHANNLGNYANFLYNIRCDYDQAETYYKKALEADPNHANTLGNYANFLCDIRHDYDQAEGYYKKALEADPKNAITLGNYALFLNDIRHAYDQAEAYYKRALEVDPKSANKLGNYAHFLITCRGDFKRADSLIQQAFENADNDEETKPLQAKLWFYRYAHYYEEWGAEAEKELAALLNVGAKSIGWNLAPDIELARKNKHPHIEQVEAFAKALTEKAQ” was “failed”.
